Assay [1] concerns the target T1, human PTK7-Fc protein antigen (human, UniProt Q13308 31-704).
T1 construct: extracellular domain; also called human PTK7 extracellular segment protein; not shown: Fc from the pFUSE-IgG recombinant plasmid
T1 sequence (looked up): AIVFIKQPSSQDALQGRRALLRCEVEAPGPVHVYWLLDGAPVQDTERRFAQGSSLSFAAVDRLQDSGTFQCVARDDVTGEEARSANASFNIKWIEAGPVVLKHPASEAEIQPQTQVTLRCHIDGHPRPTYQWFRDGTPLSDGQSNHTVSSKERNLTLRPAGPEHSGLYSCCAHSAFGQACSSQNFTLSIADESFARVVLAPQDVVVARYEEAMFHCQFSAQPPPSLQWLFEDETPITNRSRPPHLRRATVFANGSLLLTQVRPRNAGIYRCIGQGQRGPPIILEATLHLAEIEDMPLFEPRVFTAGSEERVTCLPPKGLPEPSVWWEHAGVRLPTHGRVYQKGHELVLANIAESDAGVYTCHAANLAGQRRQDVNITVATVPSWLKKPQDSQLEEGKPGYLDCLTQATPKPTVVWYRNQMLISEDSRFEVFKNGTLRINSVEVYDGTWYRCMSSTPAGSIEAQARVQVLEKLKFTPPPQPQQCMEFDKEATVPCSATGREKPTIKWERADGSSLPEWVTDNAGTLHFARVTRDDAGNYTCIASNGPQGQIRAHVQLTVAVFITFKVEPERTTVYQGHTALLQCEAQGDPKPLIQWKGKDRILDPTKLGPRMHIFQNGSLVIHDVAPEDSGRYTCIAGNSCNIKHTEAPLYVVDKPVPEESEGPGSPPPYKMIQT
In words: ELISA, antigen coated on plate, VHH in gradient dilution, anti-His/anti-HA-HRP; Kd calculated from absorbance at 450 nm. The procedure:
(§1) The ELISA plates were coated with PTK7-Fc antigen proteins from human, or mouse species, or PTK7-His antigen protein from rhesus monkey species, overnight at 4° C. The plates were washed for 4 times with PBS-T the next day, added with 1% BSA, and blocked at room temperature for 2 hours. The plates were washed for 4 times with PBS-T, added with the anti-PTK7 single domain antibodies diluted in gradient, and kept at 37° C. for 1 hour. The plates were washed for 4 times with PBS-T, added with mouse anti-His-HRP antibody or mouse anti-HA-HRP antibody, and kept at 37° C. for 1 hour. The plates were washed for 4 times with PBS-T, added with TMB soluble substrate, and kept at room temperature for 10 minutes. The absorption value was read at a wavelength of 450 nm and the Kd value of each single domain antibody was calculated based on the absorption value.
(§2) The anti-PTK7 single domain antibodies of the present invention can bind to human, mouse or rhesus monkey PTK7.

Assay [2] deals with T1, human PTK7-Fc protein antigen. The assay can be described thus: SPR (Biacore 8K), human PTK7-Fc amine-coupled on CM-5 chip, VHH as analyte. The method, then:
The fixed phase human PTK7-Fc antigen proteins were fixed on the surface of CM-5 sensing chip using carboxyl amino reaction. The anti-PTK7 single domain antibodies were diluted with HBS buffer to different concentrations, and the anti-PTK7 single domain antibodies were added at a flow rate of 30 μl/min, binding for 90 seconds, dissociating for 600 seconds, and the binding process between the anti-PTK7 single domain antibody and the antigen was observed. After rinsing with 10 mM glycine solution for chip regeneration, the next anti-PTK7 single domain antibody assay was proceeded.

For assay [3], the target named is T2, PTK7-Fc antigen protein from mouse species (mouse, UniProt Q8BKG3 23-696, limits assumed).
T2 construct: also called Mouse PTK7; not shown: Fc
T2 sequence (looked up): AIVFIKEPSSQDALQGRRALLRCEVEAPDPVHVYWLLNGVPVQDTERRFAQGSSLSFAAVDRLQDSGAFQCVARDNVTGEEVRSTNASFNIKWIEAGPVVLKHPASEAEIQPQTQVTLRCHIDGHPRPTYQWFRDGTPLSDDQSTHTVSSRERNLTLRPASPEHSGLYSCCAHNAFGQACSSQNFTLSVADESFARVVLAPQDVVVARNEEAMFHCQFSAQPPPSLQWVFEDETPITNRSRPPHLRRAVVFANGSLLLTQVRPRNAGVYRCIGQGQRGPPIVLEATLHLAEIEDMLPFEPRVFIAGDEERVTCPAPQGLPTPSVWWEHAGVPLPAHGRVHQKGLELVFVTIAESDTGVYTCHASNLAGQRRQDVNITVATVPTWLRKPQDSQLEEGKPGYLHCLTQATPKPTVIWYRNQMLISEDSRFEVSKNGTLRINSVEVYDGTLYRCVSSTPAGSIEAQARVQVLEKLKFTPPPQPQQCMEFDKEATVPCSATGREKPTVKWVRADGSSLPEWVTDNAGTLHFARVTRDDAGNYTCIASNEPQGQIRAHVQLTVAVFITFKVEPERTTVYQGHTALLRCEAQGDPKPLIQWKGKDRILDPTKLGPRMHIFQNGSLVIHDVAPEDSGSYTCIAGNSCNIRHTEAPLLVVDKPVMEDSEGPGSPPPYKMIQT
In words: ELISA, antigen coated on plate, VHH in gradient dilution, anti-His/anti-HA-HRP; Kd calculated from absorbance at 450 nm. The method, then:
as §1, §2

The target in assay [4] is T3, PTK7-His antigen protein from rhesus monkey species (rhesus monkey, UniProt F7G3Z5 39-712).
T3 construct: also called Rhesus monkey PTK7; not shown: His tag
T3 sequence: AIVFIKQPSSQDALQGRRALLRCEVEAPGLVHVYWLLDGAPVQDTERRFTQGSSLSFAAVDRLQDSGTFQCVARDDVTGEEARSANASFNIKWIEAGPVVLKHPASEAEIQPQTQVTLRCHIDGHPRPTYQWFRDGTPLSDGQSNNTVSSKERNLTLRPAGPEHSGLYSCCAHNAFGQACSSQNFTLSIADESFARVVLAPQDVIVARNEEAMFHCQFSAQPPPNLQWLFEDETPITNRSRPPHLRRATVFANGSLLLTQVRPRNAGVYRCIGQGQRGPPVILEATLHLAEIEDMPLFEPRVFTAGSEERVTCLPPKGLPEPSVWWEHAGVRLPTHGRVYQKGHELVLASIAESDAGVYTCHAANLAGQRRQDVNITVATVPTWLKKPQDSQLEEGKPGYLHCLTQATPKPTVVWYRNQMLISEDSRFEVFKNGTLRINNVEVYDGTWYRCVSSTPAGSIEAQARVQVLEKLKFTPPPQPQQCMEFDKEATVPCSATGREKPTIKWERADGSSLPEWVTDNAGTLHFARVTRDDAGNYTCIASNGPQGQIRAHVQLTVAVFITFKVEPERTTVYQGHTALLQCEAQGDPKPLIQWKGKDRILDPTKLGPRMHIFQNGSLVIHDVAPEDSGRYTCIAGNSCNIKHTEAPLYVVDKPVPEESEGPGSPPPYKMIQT
The assay is described as above. The method, then:
as §1, §2

B1: MY2132-4-55 (VHH)
VHH: QVQLQESGGGSVQAGGSLRLSCAASGYIWSRYCMGWFRQAPGKAREGVARFNSDGNTRYVDSVKGRFTISRDNAKNTLYLQMNNLQPEDTARYYCAADPRFDCGYDAVFNPTHFPYWGRGTQVTVSS
notes: Camel VHH expressed in E. coli WK6 and purified on a nickel column; also called MY2132-4-55 VHH; anti-PTK7 single domain antibody
In the case of B1, the EC50 in assay [1] is 0.49 nM. Further, in assay [2], the Kd was 0.18 nM, the dissociation rate constant (koff) was determined as 0.000314 s⁻¹ and the on-rate constant (kon) is 1.76e+06 M⁻¹ s⁻¹.

B2: MY2132-4-79 (VHH)
VHH: QVQLQESGGGSVQAGGSLRLSCAASGYIWSRYCMGWFRQAPGKAREGVARFNSDGNTRYVDSVKGRFTISRDNAKNTLYLQMNNLQPEDTARYYCAADPRFDCGYDAVFNPTHFPYWGQGTQVTVSS
notes: Camel VHH expressed in E. coli WK6 and purified on a nickel column; also called MY2132-4-79 VHH; anti-PTK7 single domain antibody
Regarding B2, the EC50 in assay [1] was 0.59 nM. Further, in assay [2], binding was characterised by a dissociation constant (Kd) of 0.22 nM, the koff was 0.000358 s⁻¹ and the kon is 1.64e+06 M⁻¹ s⁻¹.

B3: MY2132-4-22 (VHH)
VHH: QVQLQESGGGSVQAGGSLRLSCTASGFTFDDYDMVWYRQAPGNEYEWLSTVSRGGNLYYADSVKGRFTISRDNAKNTVYLNMSRVKPEDTAVYYCAADLRSVPSTYRARTCRGRYCRDYWGQGTQVTVSS
notes: Camel VHH expressed in E. coli WK6 and purified on a nickel column; also called MY2132-4-22 VHH; anti-PTK7 single domain antibody
In the case of B3, the values for the EC50 in assay [1], in assay [3] and in assay [4] were 0.33 nM, 12.7 nM and 0.3 nM, respectively. In assay [2], this molecule came in with a Kd of 2.13 nM. In addition, the koff in assay [2] came out at 0.0322 s⁻¹. For the same molecule, the kon in assay [2] was 1.51e+07 M⁻¹ s⁻¹.

B4: MY2132-5-51 (VHH)
VHH: QVQLQESGGGLVQPGGSLTLACAASGFAFSSYAMRWVRQAPGKGLEGVSSISAGGDETYYADFAKGRFTISRDNAKNTLYLQLNSLKTEDTAMYYCAKGDRNSPRYSSWPITPVGQGTQVTVSS
notes: Camel VHH expressed in E. coli WK6 and purified on a nickel column; also called MY2132-5-51 VHH; anti-PTK7 single domain antibody
B4: the EC50 in assay [1] is 0.61 nM. Further, the EC50 in assay [4] is 1.03 nM. In assay [2], this molecule gave a Kd of 3.45 nM, a koff of 0.00166 s⁻¹ and a kon of 482000 M⁻¹ s⁻¹.
